For test [1], the target named is T1, CD20 antigen on Raji lymphoblastoid B cells (UniProt P11836).
T1 sequence (looked up): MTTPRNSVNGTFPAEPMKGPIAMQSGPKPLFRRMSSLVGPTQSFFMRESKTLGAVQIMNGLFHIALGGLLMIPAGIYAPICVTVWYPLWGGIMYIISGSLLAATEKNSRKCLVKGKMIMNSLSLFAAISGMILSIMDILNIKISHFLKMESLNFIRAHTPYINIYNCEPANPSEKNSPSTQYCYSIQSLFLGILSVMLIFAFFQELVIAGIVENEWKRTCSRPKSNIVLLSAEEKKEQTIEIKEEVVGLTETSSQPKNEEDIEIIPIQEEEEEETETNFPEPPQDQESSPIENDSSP
The experiment in a line: flow cytometry on Raji cells. For orientation: Flow cytometry measures light scatter and fluorescence of single cells or particles in a stream.

Test [2] deals with C1q complement (Calbiochem) (UniProt P02745). Description: ELISA, 293-F supernatant, vs R603 IgG-WT. In general terms: ELISA stands for enzyme-linked immunosorbent assay.
Chain of C1q complement (Calbiochem) (P02745 23-245, chain 1 of 3): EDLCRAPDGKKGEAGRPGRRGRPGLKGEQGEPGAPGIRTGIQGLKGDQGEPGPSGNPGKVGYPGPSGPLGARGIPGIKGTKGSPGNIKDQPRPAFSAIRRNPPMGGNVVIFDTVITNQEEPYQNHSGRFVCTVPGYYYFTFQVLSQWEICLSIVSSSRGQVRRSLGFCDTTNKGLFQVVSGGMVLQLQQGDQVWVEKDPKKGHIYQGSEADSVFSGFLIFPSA
Chain of C1q complement (Calbiochem) (P02746 28-253, chain 2 of 3, further chain): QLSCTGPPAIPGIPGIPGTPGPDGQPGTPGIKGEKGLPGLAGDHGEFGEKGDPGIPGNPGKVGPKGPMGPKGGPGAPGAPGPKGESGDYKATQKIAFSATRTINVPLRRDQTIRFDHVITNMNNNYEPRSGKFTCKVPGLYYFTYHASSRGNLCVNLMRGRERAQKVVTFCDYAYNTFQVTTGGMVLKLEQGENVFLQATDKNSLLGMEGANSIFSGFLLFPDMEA
Chain of C1q complement (Calbiochem) (P02747 29-245, chain 3 of 3, further chain): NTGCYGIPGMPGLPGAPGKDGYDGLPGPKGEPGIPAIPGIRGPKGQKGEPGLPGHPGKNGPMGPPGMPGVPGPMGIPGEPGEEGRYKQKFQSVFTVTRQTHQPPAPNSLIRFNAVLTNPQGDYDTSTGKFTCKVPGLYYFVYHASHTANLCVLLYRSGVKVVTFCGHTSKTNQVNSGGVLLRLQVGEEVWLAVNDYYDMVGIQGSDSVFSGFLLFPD
In test [3] the target is FcRn-p3 (fusion protein of β2 microglobulin chain and FcRn α-chain fused to bacteriophage protein p3 and CVDE protein) (UniProt P61769). The experiment in a line: ELISA, 293-F supernatant, vs R603 IgG-WT.
Chain of FcRn-p3 (fusion protein of β2 microglobulin chain and FcRn α-chain fused to bacteriophage protein p3 and CVDE protein) (P61769 21-119, chain 1 of 2): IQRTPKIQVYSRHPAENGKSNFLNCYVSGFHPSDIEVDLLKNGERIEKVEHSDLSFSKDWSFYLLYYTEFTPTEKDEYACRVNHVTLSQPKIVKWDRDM
Chain of FcRn-p3 (fusion protein of β2 microglobulin chain and FcRn α-chain fused to bacteriophage protein p3 and CVDE protein) (P55899 24-290, chain 2 of 2, further chain): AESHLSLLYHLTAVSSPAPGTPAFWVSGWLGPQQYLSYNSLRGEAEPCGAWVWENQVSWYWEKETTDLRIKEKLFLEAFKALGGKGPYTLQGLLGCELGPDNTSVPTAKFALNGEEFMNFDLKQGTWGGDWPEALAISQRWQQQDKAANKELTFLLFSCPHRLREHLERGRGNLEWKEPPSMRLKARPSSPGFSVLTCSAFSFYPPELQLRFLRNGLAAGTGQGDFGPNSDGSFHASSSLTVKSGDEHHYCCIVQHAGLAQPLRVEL
Test [4] has as its target FcγRI (R&D system) (human) (UniProt P12314). Description: ELISA, 293-F supernatant, vs R603 IgG-WT.
Test [5] concerns the target FcγRIIIaV158 (R&D system) (human) (UniProt P08637). The experiment in a line: ELISA, 293-F supernatant, vs R603 IgG-WT.
Test [6] addresses FcγRIIaR131 (R&D system) (human) (UniProt P12318). Description: ELISA, 293-F supernatant, vs R603 IgG-WT.
Test [7] deals with FcγRIIb (R&D system) (human) (UniProt P31994). The experiment in a line: ELISA, 293-F supernatant, vs R603 IgG-WT.
Chain of FcγRIIb (R&D system) (human) (P31994 46-217 limits assumed): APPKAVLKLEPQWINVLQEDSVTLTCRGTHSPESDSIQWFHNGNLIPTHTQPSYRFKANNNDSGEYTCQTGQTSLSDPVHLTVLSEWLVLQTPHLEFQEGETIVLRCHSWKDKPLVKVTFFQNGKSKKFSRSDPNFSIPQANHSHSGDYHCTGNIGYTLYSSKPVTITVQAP
Test [8] has as its target Recombinant soluble human FcRn (human) (UniProt P55899). The experiment in a line: SPR (BIAcore X100), FcRn immobilised, pH 6.0.
For test [9] the target is unchanged. Description: SPR, FcRn immobilised, pH 6.0; reference R603.
Test [10] concerns the target FcRn-p3 (fusion protein of β2 microglobulin chain and FcRn α-chain fused to bacteriophage protein p3 and CVDE protein) (UniProt P61769). Description: ELISA, purified IgG from YB2/0, vs R603 IgG-WT.
In test [11] the target is FcγRI (R&D system) (human) (UniProt P12314). The experiment in a line: ELISA, purified IgG from YB2/0, vs R603 IgG-WT.
Chain of FcγRI (R&D system) (human) (P12314 16-288 limits assumed): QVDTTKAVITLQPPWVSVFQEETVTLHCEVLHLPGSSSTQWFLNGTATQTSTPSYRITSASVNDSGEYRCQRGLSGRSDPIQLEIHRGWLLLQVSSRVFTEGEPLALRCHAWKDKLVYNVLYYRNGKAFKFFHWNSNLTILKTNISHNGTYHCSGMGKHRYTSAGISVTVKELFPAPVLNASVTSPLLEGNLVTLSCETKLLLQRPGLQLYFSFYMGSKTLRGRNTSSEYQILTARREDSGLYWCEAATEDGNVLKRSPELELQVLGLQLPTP
Test [12] concerns the target FcγRIIIaF158 (PX Therapeutics, His-tagged) (human) (UniProt P08637). The experiment in a line: ELISA, purified IgG from YB2/0, vs R603 IgG-WT.
For test [13], the target named is FcγRIIIaV158 (R&D system) (human) (UniProt P08637). Description: ELISA, purified IgG from YB2/0, vs R603 IgG-WT.
Chain of FcγRIIIaV158 (R&D system) (human) (P08637 17-208 F176V limits assumed): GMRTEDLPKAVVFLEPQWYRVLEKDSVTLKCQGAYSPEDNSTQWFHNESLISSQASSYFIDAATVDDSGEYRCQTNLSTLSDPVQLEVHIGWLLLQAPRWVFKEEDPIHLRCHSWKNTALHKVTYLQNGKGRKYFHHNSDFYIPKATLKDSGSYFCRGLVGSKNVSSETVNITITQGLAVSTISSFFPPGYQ
Test [14] deals with FcγRIIaH131 (PX Therapeutics, His-tagged) (human) (UniProt P12318). The experiment in a line: ELISA, purified IgG from YB2/0, vs R603 IgG-WT.
Chain of FcγRIIaH131 (PX Therapeutics, His-tagged) (human) (P12318 34-217 limits assumed): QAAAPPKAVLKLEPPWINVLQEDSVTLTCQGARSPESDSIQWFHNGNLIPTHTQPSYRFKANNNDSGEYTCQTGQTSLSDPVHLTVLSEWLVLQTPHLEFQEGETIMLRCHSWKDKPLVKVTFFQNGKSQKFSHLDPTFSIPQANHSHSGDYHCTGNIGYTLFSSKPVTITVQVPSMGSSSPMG
The target of test [15] is FcγRIIaR131 (R&D system) (human) (UniProt P12318). Description: ELISA, purified IgG from YB2/0, vs R603 IgG-WT.
Chain of FcγRIIaR131 (R&D system) (human) (P12318 36-218 H167R limits assumed): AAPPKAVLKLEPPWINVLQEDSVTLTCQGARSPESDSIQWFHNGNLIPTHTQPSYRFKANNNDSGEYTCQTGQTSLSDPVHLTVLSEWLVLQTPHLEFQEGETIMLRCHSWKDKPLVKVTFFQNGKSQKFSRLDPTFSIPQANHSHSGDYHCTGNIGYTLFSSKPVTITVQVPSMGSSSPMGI
Test [16] addresses FcγRIIb (R&D system) (human) (UniProt P31994). Description: ELISA, purified IgG from YB2/0, vs R603 IgG-WT.
Test [17] deals with C1q complement (Calbiochem) (UniProt P02745). Description: ELISA, 293-F supernatant, vs parent 259I/315D/434Y.
In test [18] the target is FcRn-p3 (fusion protein of β2 microglobulin chain and FcRn α-chain fused to bacteriophage protein p3 and CVDE protein) (UniProt P61769). Description: ELISA, 293-F supernatant, vs parent 259I/315D/434Y.
The target of test [19] is FcγRI (R&D system) (human) (UniProt P12314). The experiment in a line: ELISA, 293-F supernatant, vs parent 259I/315D/434Y.
Test [20] addresses FcγRIIIaV158 (R&D system) (human) (UniProt P08637). The experiment in a line: ELISA, 293-F supernatant, vs parent 259I/315D/434Y.
Test [21] deals with FcγRIIaR131 (R&D system) (human) (UniProt P12318). The experiment in a line: ELISA, 293-F supernatant, vs parent 259I/315D/434Y.
Test [22] deals with FcγRIIb (R&D system) (human) (UniProt P31994). The experiment in a line: ELISA, 293-F supernatant, vs parent 259I/315D/434Y.
Test [23] addresses FcRn-p3 (fusion protein of β2 microglobulin chain and FcRn α-chain fused to bacteriophage protein p3 and CVDE protein) (UniProt P61769). Description: ELISA, purified IgG from YB2/0, vs parent R603-259I/315D/434Y.
Test [24] addresses FcγRI (R&D system) (human) (UniProt P12314). Described as above.
Test [25] has as its target FcγRIIIaF158 (PX Therapeutics, His-tagged) (human) (UniProt P08637). The description is as above.
Test [26] deals with FcγRIIIaV158 (R&D system) (human) (UniProt P08637). The test is described as above.
For test [27], the target named is FcγRIIaH131 (PX Therapeutics, His-tagged) (human) (UniProt P12318). Described as above.
Test [28] addresses FcγRIIaR131 (R&D system) (human) (UniProt P12318). Described as above.
Test [29] deals with FcγRIIb (R&D system) (human) (UniProt P31994). Described as above.
The target in test [30] is C1q complement (Calbiochem) (UniProt P02745). The experiment in a line: ELISA, 293-F supernatant, vs parent 256N/378V/383N/434Y.
Test [31] concerns the target FcRn-p3 (fusion protein of β2 microglobulin chain and FcRn α-chain fused to bacteriophage protein p3 and CVDE protein) (UniProt P61769). The description is as above.
Test [32] has as its target FcγRI (R&D system) (human) (UniProt P12314). Described as above.
Test [33] has as its target FcγRIIaR131 (R&D system) (human) (UniProt P12318). Described as above.
In test [34] the target is FcγRIIb (R&D system) (human) (UniProt P31994). The description is as above.
Test [35] has as its target FcRn-p3 (fusion protein of β2 microglobulin chain and FcRn α-chain fused to bacteriophage protein p3 and CVDE protein) (UniProt P61769). Description: ELISA, purified IgG from YB2/0, vs parent R603-256N/378V/383N/434Y.
Test [36] deals with FcγRI (R&D system) (human) (UniProt P12314). The description is as above.
The target in test [37] is FcγRIIaH131 (PX Therapeutics, His-tagged) (human) (UniProt P12318). The test is described as above.
Test [38] has as its target FcγRIIaR131 (R&D system) (human) (UniProt P12318). Described as above.
In test [39] the target is FcγRIIb (R&D system) (human) (UniProt P31994). The test is described as above.

The Kd is a measure of binding affinity in units of concentration.

Chain of FcγRIIIaF158 (PX Therapeutics, His-tagged) (human) (P08637 17-208 limits assumed): as the sequence (P08637 17-208 F176V limits assumed) above, with V160F counted along it
Chain of Recombinant soluble human FcRn (human) (P55899 24-290 limits assumed, chain 1 of 2): as the sequence (P55899 24-290, chain 2 of 2, further chain) above
Chain of Recombinant soluble human FcRn (human) (P61769 21-119 limits assumed, chain 2 of 2, further chain): as the sequence (P61769 21-119, chain 1 of 2) above

In [1], “R603 anti-CD20 IgG1 variant 259I/294Del/315D/434Y (antibody)” displayed an Ag binding MFI (Arbitrary Unit) of 96. In addition, the Ratio/IgG-WT in test [2] is 0.13; in test [3], 2.87; in [4], 0.34; in [5] it was 0.02; in test [6], 0.01; in test [7] it was 0.01. Further, the Ratio/IgG-WT was found to be 5.97 in [10]; 0.1 in test [11]; 0.08 in test [12]; 0.05 in test [13]; 0.08 in [14]; 0.07 in test [15]. Also, in test [16], the Ratio/IgG-WT was 0.41. Also, the Kd in test [8] was determined as 28 nM. Besides, the Ratio WT/IgG (KD) in test [9] turned out to be 3.54. In addition, the ratio to the IgG1 without 294Del in [17] stood at 0.1; in test [18], 0.66; in test [19], 0.41; in test [20], 0.02; in [21], 0.01; in [22], 0.01. The ratio to the IgG1 without 294Del was 0.86 in test [23]; 0.09 in test [24]; 0.07 in test [25]; 0.05 in test [26]; 0.08 in test [27]; 0.06 in [28]. Further, the ratio to the IgG1 without 294Del in [29] was 0.27.

Consider “R603 anti-CD20 IgG1 variant 256N/294Del/378V/383N/434Y (antibody)”, for which the ratio to the IgG1 without 294Del in [30] came to 0.04; in test [31], 0.75; in [32], 0.66; in [33], 0.004; in test [34], 0.002; in test [35], 1.04. The ratio to the IgG1 without 294Del is 0.07 in test [36], 0.09 in test [37], 0.06 in test [38] and 0.25 in [39].

For the origin of these results see US20140378663A1.
